In patent US20080131962:

Assays:
[1] = test system: ZFN pair E490K/wt (synthetic construct); assay: cleavage_in_vitro; conditions: average of both orientations
[2] = test system: ZFN pair L-/R- (Q486E:I499L both) (synthetic construct); assay: cleavage_in_vitro; conditions: cleavage lost through lack of dimerization, not of ZFP binding
[3] = test system: ZFN pair E490K/E490K (synthetic construct); assay: cleavage_in_vitro; conditions: same variant on L and R
[4] = test system: ZFN pair Q486E/wt (synthetic construct); assay: cleavage_in_vitro; conditions: average of both orientations
[5] = test system: ZFN pair E490K/Q486E (synthetic construct); assay: cleavage_in_vitro; conditions: average of both orientations
[6] = test system: ZFN pair E490K:I538K/Q486E (synthetic construct); assay: cleavage_in_vitro; conditions: average of both orientations
[7] = test system: ZFN pair Q486E/Q486E (synthetic construct); assay: cleavage_in_vitro; conditions: same variant on L and R
[8] = test system: ZFN pair L+/R- (L-E490K:I538K, R-Q486E:I499L) (synthetic construct); assay: cleavage_in_vitro
[9] = test system: ZFN pair E490K/Q486E:I499L (synthetic construct); assay: cleavage_in_vitro; conditions: average of both orientations
[10] = test system: ZFN pair L+/R+ (E490K:I538K both) (synthetic construct); assay: cleavage_in_vitro; conditions: cleavage lost through lack of dimerization, not of ZFP binding
[11] = test system: ZFN pair Lwt/Rwt (wild-type FokI cleavage domains) (synthetic construct); assay: cleavage_in_vitro; conditions: six-fold diluted ZFN, FokI buffer pH 8.5, 2 mM MgCl2, 10 uM ZnCl2, 37 C 2 h
[12] = test system: ZFN pair Q486E:I499L/wt (synthetic construct); assay: cleavage_in_vitro; conditions: average of both orientations; printed I449L in table
[13] = test system: ZFN pair L-/R+ (L-Q486E:I499L, R-E490K:I538K) (synthetic construct); assay: cleavage_in_vitro; conditions: 2 mM MgCl2, 37 C 2 h
[14] = test system: ZFN pair E490K:I538K/wt (synthetic construct); assay: cleavage_in_vitro; conditions: average of both orientations
[15] = test system: ZFN pair Lwt/Rwt in cells (synthetic construct); assay: cell_activity; conditions: HEK293 GFP gene correction
[16] = test system: ZFN pair L+/R+ in cells (synthetic construct); assay: cell_activity; conditions: forced homodimer of cleavage domains
[17] = test system: ZFN pair L+/R- in cells (synthetic construct); assay: cell_activity; conditions: HEK293 GFP gene correction
[18] = test system: ZFN pair L-/R+ in cells (synthetic construct); assay: cell_activity; conditions: HEK293 GFP gene correction
[19] = test system: ZFN pair L-/R- in cells (synthetic construct); assay: cell_activity; conditions: forced homodimer of cleavage domains

For “TGTTCGGAGCCGCTTTAACCCACTCTGTGGAAGTGCT (double strand) [LR heterodimer target]”, the cleavage activity relative to wild type (fraction of wt/wt) [1] was 1, the cleavage activity relative to wild type (fraction of wt/wt) [2] was 0 and the cleavage activity relative to wild type (fraction of wt/wt) [3] was 0.96. For the same sequence, the cleavage activity relative to wild type (fraction of wt/wt) [4] was 0.68, the cleavage activity relative to wild type (fraction of wt/wt) [5] was 0.96 and the cleavage activity relative to wild type (fraction of wt/wt) [6] was 0.32. The cleavage activity relative to wild type (fraction of wt/wt) [7] was 0.19, the activity ([8]; 2 mM MgCl2, 37 C 2 h) was 50 % cleaved and the cleavage activity relative to wild type (fraction of wt/wt) ([8]; average of L+/R- and L-/R+, printed I449L in table) was 0.48. The cleavage activity relative to wild type (fraction of wt/wt) [9] was 0.97, the cleavage activity relative to wild type (fraction of wt/wt) [10] was 0 and the activity [11] was 61 % cleaved. It also gave a cleavage activity relative to wild type (fraction of wt/wt) [12] of 0.48, an activity [13] of 50 % cleaved and a cleavage activity relative to wild type (fraction of wt/wt) [14] of 0.74.

Sequence “TGTTCGGAGCCGCTTTAACCCACTCTGTGGAAGTGCT (double strand) [IL2Rgamma ZFN target in eGFP reporter or endogenous locus]” has an activity (% GFP-positive cells) [15] of 1.27, an activity (% GFP-positive cells) [16] of 0.02 and an activity (% GFP-positive cells) [17] of 1.98. For the same sequence, the activity (% GFP-positive cells) [18] was 1.71 and the activity (% GFP-positive cells) [19] was 0.12.
